According to patent publication US20180311373A1:

Molecular target: HLA-A2 on HLA-A2 positive lymphocytes / PBMCs (human)
Test: cell-based or functional assay

G-Body inhibitory effect on proliferation of PBMCs; CD3/CD28 beads; HLA-A2 positive donor C; Day 7: 70%
G-Body inhibitory effect on proliferation of PBMCs; CD3/CD28 beads; HLA-A2 positive donor D; Day 7: 50%
G-Body inhibitory effect on proliferation of PBMCs; CD3/CD28 beads; HLA-A2 positive donor G; Day 3: 40%
G-Body inhibitory effect on proliferation of PBMCs; CD3/CD28 beads; HLA-A2 positive donor G; Day 7: 50%
G-Body inhibitory effect on proliferation of PBMCs; CD3/CD28 beads; HLA-A2 positive donor J; Day 3: 50%
G-Body inhibitory effect on proliferation of PBMCs; SEB; HLA-A2 positive donor C; Day 3: 60%
G-Body inhibitory effect on proliferation of PBMCs; SEB; HLA-A2 positive donor J; Day 3: 70%
G-Body inhibitory effect on proliferation of PBMCs; SEB; HLA-A2 positive donor J; Day 7: 70%
Substance: conjugate C (streptavidin-linked BB7.2 monoclonal antibody mixed with biotinylated HLA-G) (from UniProt P22629 37-163; P17693 25-299)
